Assay results from US20090269346A1 (RAPTOR PHARMACEUTICAL, published 2009).
Numbering of substitutions follows the chain as printed. Names and notes keep the numbering of the source.

T1: RAP-IDU (fusion of RAP and human α-L-iduronidase) (human, UniProt P35475 28-653, limits assumed)
T1 construct: iduronidase served as reporter
T1 sequence: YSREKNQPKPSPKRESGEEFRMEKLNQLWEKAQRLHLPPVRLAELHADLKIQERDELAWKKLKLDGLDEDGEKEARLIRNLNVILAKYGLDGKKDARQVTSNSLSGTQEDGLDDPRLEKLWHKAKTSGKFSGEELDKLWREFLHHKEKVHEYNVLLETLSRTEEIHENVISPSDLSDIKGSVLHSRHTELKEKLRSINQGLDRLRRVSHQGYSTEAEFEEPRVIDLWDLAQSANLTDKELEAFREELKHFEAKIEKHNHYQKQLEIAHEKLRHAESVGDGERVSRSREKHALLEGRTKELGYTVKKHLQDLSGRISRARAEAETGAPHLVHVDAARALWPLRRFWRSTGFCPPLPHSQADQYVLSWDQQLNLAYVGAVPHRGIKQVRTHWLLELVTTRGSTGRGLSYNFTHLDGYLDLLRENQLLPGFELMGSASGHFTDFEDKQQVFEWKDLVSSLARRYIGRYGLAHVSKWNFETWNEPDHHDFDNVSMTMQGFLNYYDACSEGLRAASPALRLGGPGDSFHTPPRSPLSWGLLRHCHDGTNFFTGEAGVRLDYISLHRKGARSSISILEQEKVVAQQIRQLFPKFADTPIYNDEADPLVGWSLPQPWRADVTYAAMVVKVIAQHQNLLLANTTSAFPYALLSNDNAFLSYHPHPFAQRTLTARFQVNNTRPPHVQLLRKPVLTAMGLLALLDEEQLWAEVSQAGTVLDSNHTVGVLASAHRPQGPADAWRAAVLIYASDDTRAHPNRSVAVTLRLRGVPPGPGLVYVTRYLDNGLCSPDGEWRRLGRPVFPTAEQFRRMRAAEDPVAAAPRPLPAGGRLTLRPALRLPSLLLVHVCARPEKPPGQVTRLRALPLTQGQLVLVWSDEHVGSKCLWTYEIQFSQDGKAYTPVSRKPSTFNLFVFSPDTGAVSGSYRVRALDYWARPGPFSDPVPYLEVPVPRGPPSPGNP

B1: LRP6 CR12 (receptor, human, UniProt O75581 1247-1322, looked up)
chain: PTCSPQQFTCFTGEIDCIPVAWRCDGFTECEDHSDELNCPVCSESQFQCASGQCIDGALRCNGDANCQDKSDEKNC
notes: range 1247-1322; also called L6 CR12; not shown: N-terminal hexahistidine and S-peptide from pET30(+)a
B2: LRP6 CR1-3 (receptor, human, UniProt O75581 1247-1363, looked up)
chain: PTCSPQQFTCFTGEIDCIPVAWRCDGFTECEDHSDELNCPVCSESQFQCASGQCIDGALRCNGDANCQDKSDEKNCEVLCLIDQFRCANGQCIGKHKKCDHNVDCSDKSDELDCYPT
notes: range 1247-1363; also called L6 CR1-3; not shown: N-terminal hexahistidine and S-peptide from pET30(+)a
B3: VLDLR CR6-8 (receptor)
chain: not shown
notes: range 235-358; also called V CR6-8; not shown: N-terminal hexahistidine and S-peptide from pET30(+)a
B4: LRP2 CR89 (receptor)
chain: not shown
notes: domain: CR8 and CR9; also called YVWR; L2 CR89; not shown: N-terminal hexahistidine and S-peptide from pET30(+)a
B5: RAP d3 E217K (ligand)
chain: LDRLRRVSHQGYSTEAKFEEPRVIDLWDLEQSANLTDKELEAFREELKHFEAKIEKHNHYQKQLEIAHEKLRHAESVGDGERVSRSREKHALLEGRTKELGYTVKKHLQDLSGRISRAR
notes: forward mutant of wild-type RAP d3; also called RAP E217K; not shown: vector-encoded N-terminal tags of pET30(+)a
B6: RAP d3 E251K (ligand)
chain: B5 chain with K17E, E51K
notes: forward mutant of wild-type RAP d3; also called RAP E251K; not shown: vector-encoded N-terminal tags of pET30(+)a
B7: RAP d3 E251K, K270E (ligand)
chain: B5 chain with K17E, E51K, K70E
notes: forward mutant of wild-type RAP d3; also called RAP E251K, K270E; not shown: vector-encoded N-terminal tags of pET30(+)a
B8: RAP d3 H249Y (ligand)
chain: B5 chain with K17E, H49Y
notes: forward mutant of wild-type RAP d3; also called RAP H249Y; not shown: vector-encoded N-terminal tags of pET30(+)a
B9: RAP d3 K256A, K270E (ligand)
chain: B5 chain with K17E, K56A, K70E
notes: forward mutant of wild-type RAP d3; also called RAP K256A, K270E; not shown: vector-encoded N-terminal tags of pET30(+)a
B10: RAP d3 K270E (ligand)
chain: B5 chain with K17E, K70E
notes: forward mutant of wild-type RAP d3; also called RAP K270E; not shown: vector-encoded N-terminal tags of pET30(+)a
B11: RAP d3 E251K, K256A, K270E (ligand)
chain: B5 chain with K17E, E51K, K56A, K70E
notes: forward mutant of wild-type RAP d3; also called RAP E251K, K256A, K270E; not shown: vector-encoded N-terminal tags of pET30(+)a

These binders were tested against T1, RAP-IDU (fusion of RAP and human …) (assay: solid-phase assay: CR protein coated on the plate, RAP-IDU titrated, bound iduronidase activity read as rfu).
Description: Initially, the binding of wild-type RAP to each CR pair or triplet was measured by solid-phase assay. Purified, refolded CR proteins were bound to Maxisorp plates during overnight incubation at 4° C. CR-loaded wells were blocked by resuspending in TBS Superblock (Pierce) supplemented with 5 mM CaCl2 (blocking buffer) and incubating for 1 hour at room temperature. Blocking buffer was removed and wells were washed once in TBS supplemented with 5 mM CaCl2 and 0.05% Tween-20 (wash buffer). Washed wells were incubated with 10 nM purified RAP-IDU (Tanimoto, et al., (2005) Br J Cancer 92, 278-283) for 2 hours at room temperature in blocking buffer. […] Wells were washed four times with wash buffer and resuspended in acidic PBS pH 5.6 supplemented with 200 μg/mL BSA (assay buffer). Iduronidase activity was measured as described previously using the fluorescent substrate 4-MU-α-L-iduronide (Tanimoto, et al., (2005) Br J Cancer 92, 278-283). No binding of RAP-IDU to empty wells was measured. […] RAP bound more weakly to other CR proteins, with dissociation constants from 30 to over 1000 nM.

Binder | Kd
B1 | > 1000 nM
B2 | 328 nM
B3 | 170 nM
B4 | 29 nM

The binders below were run against B4 (assay: solid-phase binding assay: CR protein coated on the plate, ligand titrated, anti-RAP polyclonal and HRP secondary, OD 450 nm).
Description: (§1) Solid phase binding assays-Purified, refolded CR protein (1 μg) was bound to Nunc Maxisorp™ 96-well plates in TBS pH 8 supplemented with 5 mM CaCl₂ (TBSC) overnight at 4° C. Wells were washed with TBSC and then blocked with TBSC containing 2% bovine serum albumin (BSA). RAP ligands were then incubated with the immobilized receptor at a range of concentrations for 2 hours in the above blocking buffer supplemented with 0.05% Tween-20 at room temperature. Control wells contained no added ligand. As an additional control, to determine whether the absence of calcium affected binding, 10 mM EGTA was included in the incubation medium for some samples. Wells were washed with TBSTC and bound ligands detected with polyclonal anti-RAP (BP41/42, 1:1,000, BioMarin). Excess primary antibody was removed and wells washed before incubation with the secondary antibody, HRP-conjugated goat anti rabbit IgG (Bio-Rad). After washing, TMB substrate solutions (Bio-Rad) were added to detect HRP. Color development was stopped with 1N HCl. Absorption at 450 nm was measured with a microplate spectrophotometer (Molecular Devices). Data were plotted and Kd values derived by non-linear regression with the assumption of single-site binding (GraphPad Prism).
(§2) Next, binding of RAP d3 and RAPv2A d3 proteins to LRP1 CR3-5 and LRP2 CR89 was assessed. In order to understand the relative contributions of each RAPv2A d3 mutation to differences in affinity, we also prepared a number of RAPv2A d3 revertants and RAP d3 forward mutants, all comprising sequence variants intermediate between RAPv2A d3 and wild-type RAP d3 (FIGS. 7A and B, Table 1). Samples were tested in triplicate and experiments were repeated at least once. Values from different experiments were combined and a single mean and standard deviation obtained for each concentration of ligand tested. OD values from uncoated wells, receptor-coated wells incubated with buffer alone, and uncoated wells incubated with the highest ligand concentration all gave similar values for all conditions tested. All OD values were corrected by subtracting the OD obtained from uncoated wells.

Binder | binding result
B5 | no binding (tested: 100 nM)
B6 | no binding (tested: 100 nM)
B7 | no binding (tested: 100 nM)
B8 | no binding (tested: 100 nM)
B9 | no binding (tested: 100 nM)
B10 | no binding (tested: 100 nM)

The binders below were run against T2, LRP1 CR3-5 (human) (assay: solid-phase assay, coated CR protein, anti-RAP, OD450).
T2 construct: range 852-973; Amplified from human cDNA; also called L1 CR3-5
T2 sequence (Q07954 852-973): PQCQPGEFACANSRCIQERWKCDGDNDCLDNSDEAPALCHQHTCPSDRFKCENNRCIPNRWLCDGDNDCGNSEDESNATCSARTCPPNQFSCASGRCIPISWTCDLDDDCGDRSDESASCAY
Description: (§3) Percent of maximum binding is the ratio of the OD at the highest concentration tested for each ligand and the highest OD measured for all such ligands at that concentration.
as §1
as §2, with “tested.” for “tested. OD values from uncoated wells, receptor-coated wells incubated with buffer alone, and uncoated wells incubated with the highest ligand concentration all gave similar values for all conditions tested. All OD values were corrected by subtracting the OD obtained from uncoated wells.”

Binder | % max (percent of maximum binding) | Kd
B5 | 91% | 9 nM
B6 | 100% | 7 nM
B11 | 2% | –
B7 | 4% | –
B8 | 90% | 28 nM
B9 | 2% | –
B10 | 4% | –

These binders were tested against B4 in the same assay as above.
Description: as §3, §1
as §2, with “tested.” for “tested. OD values from uncoated wells, receptor-coated wells incubated with buffer alone, and uncoated wells incubated with the highest ligand concentration all gave similar values for all conditions tested. All OD values were corrected by subtracting the OD obtained from uncoated wells.”

Binder | % max (percent of maximum binding) | Kd
B5 | 5% | –
B6 | 5% | –
B11 | 40% | 114 nM
B7 | 2% | –
B8 | 2% | –
B9 | 3% | –
B10 | 2% | –
